Measured values from patent US8709448B2, “Anti-infective agents and uses thereof” (priority 2008, dated 2014).

System: PBMC

IFNα
effect on overall PBMC culture viability: no effect
